Here are results for seven molecules from patent publication US20130004527A1.

For this experiment, the target named is IgE in a panel of sera from 22 patients allergic to ragweed (human). In words: competition ELISA; tested as AllerR mix with 22 sera.

Where only a bound is given, the exact number is not on record here.

B1: AllerR1 (peptide)
peptide: TSGAYNIIDGCWRGKADWAENRKALADCAQGFGKGTVGGKDGDIYTVTSELDDDVANPK
In turn, B1 came in with a highest concentration without competition greater than 10 µM.

B2: AllerR2 (peptide)
peptide: DVANPKEGTLRFGAAQNRPLWIIFERDMVIRLDKEMVVNSDKTIDGRGAKVE
The molecule B2 gave a highest concentration without competition greater than 10 µM.

B3: AllerR5 (peptide)
peptide: TVAFNTFTDNVDQRMPRCRHGFFQVVNNNYDKWGSYAIGGSASPTILSQGNRFCAPDERSKKNVLGRHGE
As for B3, the highest concentration without competition was greater than 10 µM.

B4: AllerR4.3 (peptide)
peptide: MHDVKVNPGGLIKSNDGPAAPRAGSDGDAISISGSSQIWIDHCSLSKSVDGLVDAKLGTTR
Consider B4, for which the highest concentration without competition was greater than 10 µM.

B5: AllerR6 (peptide)
peptide: VLGRHGEAAAESMKWNWRTNKDVLENGAIFVASGVDPVLTPEQSAGMIPAEPGESALSLTSSAGVLSCQPGA
The molecule B5 showed a highest concentration without competition greater than 10 µM. With VDAKLGTTRLTVSNSLFTQHQFVLLFGAGDENIEDRGMLATVAFNTFTDN [AllerR4.2] the figure was greater than 10 µM; with TIDGRGAKVEIINAGFTLNGVKNVIIHNINMHDVKVNPGGLIK [AllerR3], greater than 10 µM.
